In patent publication US6753151B1, “Interactions of Ku polypeptides and applications thereof” (Kudos Pharmaceuticals Limited, priority 1999, dated 2004):
Where no end group is shown, it is not given here. The star is where a group is joined. Biotin = O=C1N[C@H]2[C@H](CS[C@H]2CCCCC(=O)*)N1

Tests used:
DNA-PKcs [1] = target: T1, DNA-PKcs (Homo sapiens, UniProt P78527); test: Peptide interaction assay with crude HeLa cell nuclear extract; format: binding; design: incubated with ˜100 μg (10 μl) of HeLa Cell nuclear extract (NE); host or cells: HeLa cell nuclear extract
Experimental: (§1) 5 Peptides with the sequence Ser-Gly-Ser-Gly (SEQ ID NO:10) as a linker to 12 amino acid residues (SEQ ID NOS:1 and 12-15) derived from the sequence of Ku80 (see FIG. 5) were generated with a biotin moiety at the N-terminus (Khiron Technologies). Each peptide (2×10^11 moles) was incubated with either 400 ng (˜10^12 moles) of purified DNA-PKcs or 100 μg of crude HeLa NE in 100 μl (final) volume of Z′ buffer (see above for buffer composition). Binding reactions were incubated for 2.75 hours at 4° C., then a 100 μl suspension of para-magnetic beads, containing 1:5 dilution of Dynabeads (Dynal) in Z′ buffer, was added for a final 0.25 hour incubation. Dynabeads are conjugated with Streptavidin. The bead-protein complexes were be retrieved from the solution using a magnet and washed 5 times with 0.5 ml of Buffer X (see above for buffer composition). Proteins retained on the beads were eluted in SDS gel-loading buffer and subjected to polyacrylamide gel eletrophoresis and silver staining.
The ability of each of the five peptides to retrieve proteins from a crude unfractionated HeLa cell nuclear extract was determined. […] Any proteins remaing bound to the peptide/beads was eluted in SDS-PAGE buffer, resolved on a 6% polyacrylamide gel and detected with silver-staining. […]

DNA-PKcs [2] = target: T1, DNA-PKcs; test: Peptide interaction assay with purified DNA-PKcs; format: binding; design: The starting material for purification of DNA-PKcs was HeLa NE; host or cells: HeLa nuclear extract; purified in house over Q Sepharose, heparin agarose, phenyl Sepharose and Mono-S; conditions: 50 mM and 100 mM KCl; streptavidin paramagnetic beads; silver-staining
Experimental: as §1, with “Proteins retained on the beads were eluted in SDS gel-loading buffer and subjected to polyacrylamide gel eletrophoresis and silver staining.” left out
The inventors synthesised a series of peptides (Peptides A-E, SEQ ID NOS:1 and 12-15) derived in sequence from the extreme C-terminus of Ku80 (residues 609 to 733, SEQ ID NO:11: see FIG. 5 and Materials and Methods). […] The beads were recovered using a magnet, washed extensively in buffer containing the same concentration of KCl as the incubation buffer X (25 mM HEPES pH 7.5, 50 mM/100 mM KCl, 2 mM MgCl2, 0.4% NP-40), and the bound protein eluted in SDS-PAGE sample buffer, resolved on a 6% polyacrylamide gel and detected using silver-staining.

[3] = target: T2, DNA-dependent protein kinase catalytic subunit (DNA-PKcs), human, from HeLa cell nuclear extract (human, UniProt P78527 1-4128); test: biotinylated peptide with purified DNA-PKcs, streptavidin magnetic beads, 50 mM or 100 mM KCl, silver stain
T2 construct: mature; Used either within crude HeLa nuclear extract or as an essentially homogeneous preparation (about 1 Ku per 840 DNA-PKcs molecules); also called purified DNA-PKcs; homogeneous DNA-PKcs
Experimental: as §1, with “12–15)” for “12-15)”, “(2 ×10^11” for “(2×10^11”, “(~10^12” for “(˜10^12”, “Z'” for “Z′”

T2 sequence (P78527 whole entry): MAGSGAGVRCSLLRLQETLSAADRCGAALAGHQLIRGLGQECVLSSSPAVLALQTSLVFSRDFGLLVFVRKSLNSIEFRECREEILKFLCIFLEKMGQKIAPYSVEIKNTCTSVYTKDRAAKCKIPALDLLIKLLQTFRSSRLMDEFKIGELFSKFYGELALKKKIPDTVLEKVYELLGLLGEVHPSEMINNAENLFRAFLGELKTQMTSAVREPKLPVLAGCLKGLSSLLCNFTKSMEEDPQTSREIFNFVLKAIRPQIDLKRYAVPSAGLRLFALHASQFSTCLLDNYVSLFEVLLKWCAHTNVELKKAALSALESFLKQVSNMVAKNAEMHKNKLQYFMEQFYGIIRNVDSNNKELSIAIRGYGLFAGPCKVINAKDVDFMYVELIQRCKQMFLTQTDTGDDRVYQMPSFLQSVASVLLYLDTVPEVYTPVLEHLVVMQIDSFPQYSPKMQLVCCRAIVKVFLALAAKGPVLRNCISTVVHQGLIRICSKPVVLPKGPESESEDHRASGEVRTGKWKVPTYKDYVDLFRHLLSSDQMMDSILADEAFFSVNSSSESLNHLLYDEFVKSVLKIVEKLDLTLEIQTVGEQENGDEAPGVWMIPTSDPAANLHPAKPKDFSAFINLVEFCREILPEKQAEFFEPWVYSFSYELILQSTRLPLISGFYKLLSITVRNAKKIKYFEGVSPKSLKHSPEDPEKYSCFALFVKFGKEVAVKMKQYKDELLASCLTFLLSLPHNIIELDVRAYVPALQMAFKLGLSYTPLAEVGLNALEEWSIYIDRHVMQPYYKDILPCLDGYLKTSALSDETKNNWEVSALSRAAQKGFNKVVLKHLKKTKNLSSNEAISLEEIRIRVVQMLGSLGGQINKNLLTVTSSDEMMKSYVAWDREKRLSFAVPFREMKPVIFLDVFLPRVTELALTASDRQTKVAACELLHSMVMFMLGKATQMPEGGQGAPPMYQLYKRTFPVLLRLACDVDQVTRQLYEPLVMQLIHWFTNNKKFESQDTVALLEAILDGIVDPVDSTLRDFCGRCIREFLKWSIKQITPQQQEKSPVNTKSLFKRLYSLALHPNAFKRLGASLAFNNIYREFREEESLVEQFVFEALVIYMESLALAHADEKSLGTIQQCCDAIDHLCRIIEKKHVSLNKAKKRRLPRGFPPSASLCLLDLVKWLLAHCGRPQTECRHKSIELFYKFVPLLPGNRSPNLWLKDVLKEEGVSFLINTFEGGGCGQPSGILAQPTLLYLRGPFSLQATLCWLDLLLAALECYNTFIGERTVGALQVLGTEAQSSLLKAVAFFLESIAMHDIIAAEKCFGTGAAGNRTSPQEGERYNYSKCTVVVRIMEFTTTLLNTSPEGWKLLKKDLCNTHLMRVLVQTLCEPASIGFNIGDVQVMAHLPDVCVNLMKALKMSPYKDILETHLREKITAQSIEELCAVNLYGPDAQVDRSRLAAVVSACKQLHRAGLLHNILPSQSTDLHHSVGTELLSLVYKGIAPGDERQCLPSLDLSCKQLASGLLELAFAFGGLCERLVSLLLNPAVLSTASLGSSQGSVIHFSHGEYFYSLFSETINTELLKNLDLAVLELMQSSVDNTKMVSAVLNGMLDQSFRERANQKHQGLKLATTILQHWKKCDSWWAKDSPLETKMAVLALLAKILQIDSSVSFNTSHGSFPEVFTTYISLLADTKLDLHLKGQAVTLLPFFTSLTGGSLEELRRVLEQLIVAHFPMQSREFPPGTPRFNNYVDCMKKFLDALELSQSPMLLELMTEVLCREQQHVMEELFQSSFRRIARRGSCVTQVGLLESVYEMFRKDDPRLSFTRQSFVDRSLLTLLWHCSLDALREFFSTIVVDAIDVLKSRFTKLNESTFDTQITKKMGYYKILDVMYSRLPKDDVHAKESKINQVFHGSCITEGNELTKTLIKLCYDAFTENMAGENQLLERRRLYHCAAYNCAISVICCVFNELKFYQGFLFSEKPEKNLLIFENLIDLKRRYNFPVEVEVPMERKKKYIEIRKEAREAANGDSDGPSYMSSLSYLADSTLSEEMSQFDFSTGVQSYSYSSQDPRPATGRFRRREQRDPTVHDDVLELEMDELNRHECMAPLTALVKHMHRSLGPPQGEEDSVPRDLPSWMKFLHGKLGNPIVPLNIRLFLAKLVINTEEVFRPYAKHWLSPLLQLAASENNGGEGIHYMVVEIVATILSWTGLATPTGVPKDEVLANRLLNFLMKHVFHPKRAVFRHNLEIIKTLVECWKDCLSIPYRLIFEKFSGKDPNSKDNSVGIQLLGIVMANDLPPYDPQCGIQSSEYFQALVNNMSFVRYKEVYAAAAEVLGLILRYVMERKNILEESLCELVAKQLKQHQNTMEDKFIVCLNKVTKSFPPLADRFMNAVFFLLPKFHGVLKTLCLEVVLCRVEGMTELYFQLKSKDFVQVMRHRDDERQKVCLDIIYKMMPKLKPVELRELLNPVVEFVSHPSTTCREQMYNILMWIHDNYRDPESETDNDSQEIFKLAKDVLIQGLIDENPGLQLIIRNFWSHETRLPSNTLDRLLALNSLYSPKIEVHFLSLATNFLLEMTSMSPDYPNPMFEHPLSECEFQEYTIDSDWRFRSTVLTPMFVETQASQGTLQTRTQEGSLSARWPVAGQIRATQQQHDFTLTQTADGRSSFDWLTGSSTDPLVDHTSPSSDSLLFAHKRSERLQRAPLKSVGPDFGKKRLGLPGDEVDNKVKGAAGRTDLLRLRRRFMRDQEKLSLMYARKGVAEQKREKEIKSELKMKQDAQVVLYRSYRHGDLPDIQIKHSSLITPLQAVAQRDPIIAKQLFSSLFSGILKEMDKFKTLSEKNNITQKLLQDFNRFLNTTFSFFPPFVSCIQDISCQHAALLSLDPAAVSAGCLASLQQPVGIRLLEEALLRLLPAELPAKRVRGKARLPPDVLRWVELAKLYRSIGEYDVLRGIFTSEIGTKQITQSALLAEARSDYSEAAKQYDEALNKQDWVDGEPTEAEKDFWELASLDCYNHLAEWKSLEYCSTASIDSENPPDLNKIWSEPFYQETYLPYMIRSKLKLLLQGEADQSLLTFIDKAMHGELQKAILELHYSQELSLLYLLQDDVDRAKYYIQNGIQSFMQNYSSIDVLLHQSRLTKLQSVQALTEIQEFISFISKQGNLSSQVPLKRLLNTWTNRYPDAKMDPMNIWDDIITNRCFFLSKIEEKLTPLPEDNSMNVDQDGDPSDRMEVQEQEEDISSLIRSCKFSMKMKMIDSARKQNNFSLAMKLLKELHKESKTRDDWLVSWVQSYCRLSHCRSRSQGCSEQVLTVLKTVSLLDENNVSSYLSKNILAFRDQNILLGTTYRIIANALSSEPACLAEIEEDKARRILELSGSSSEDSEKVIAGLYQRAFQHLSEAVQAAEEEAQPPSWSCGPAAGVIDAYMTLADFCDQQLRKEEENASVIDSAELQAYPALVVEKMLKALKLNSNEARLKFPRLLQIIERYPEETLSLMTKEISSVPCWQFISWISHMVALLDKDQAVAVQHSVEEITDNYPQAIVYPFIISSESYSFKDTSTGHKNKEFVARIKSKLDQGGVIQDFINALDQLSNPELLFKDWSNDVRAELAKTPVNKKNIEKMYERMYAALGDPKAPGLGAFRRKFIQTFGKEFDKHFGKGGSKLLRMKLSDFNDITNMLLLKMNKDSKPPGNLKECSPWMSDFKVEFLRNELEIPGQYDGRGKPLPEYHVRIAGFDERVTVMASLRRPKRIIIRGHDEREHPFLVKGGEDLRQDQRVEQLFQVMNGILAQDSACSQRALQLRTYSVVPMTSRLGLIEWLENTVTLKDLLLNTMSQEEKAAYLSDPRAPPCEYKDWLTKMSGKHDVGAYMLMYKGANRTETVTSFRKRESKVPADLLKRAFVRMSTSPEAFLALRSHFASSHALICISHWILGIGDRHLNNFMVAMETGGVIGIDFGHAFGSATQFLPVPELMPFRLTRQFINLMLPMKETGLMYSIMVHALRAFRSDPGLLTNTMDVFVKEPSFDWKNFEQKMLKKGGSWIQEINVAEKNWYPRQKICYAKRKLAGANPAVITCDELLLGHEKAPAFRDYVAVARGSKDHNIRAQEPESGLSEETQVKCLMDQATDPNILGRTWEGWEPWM
T1 sequence (P78527 whole entry): as above

Row | depletion of DNA-PKcs from HeLa nuclear extract (DNA-PKcs [1]; additional studies) | binding of purified DNA-PKcs by biotinylated peptide (DNA-PKcs [2]) | binding result [3] | Molecule | proteins retrieved from HeLa nuclear extract by biotinylated peptide (DNA-PKcs [1]; 50 mM KCl, streptavidin magnetic beads, silver-staining, western blotting)
1 | 60-70% | interacts directly with DNA-PKcs | – | EGGDVDDLLDMI [Peptide E] | affinity purified predominantly a single protein species of high molecular weight
2 | – | – | no binding | Biotin-SGSGAVFEEGGDVDDL [Peptide D (biotin-Ser-Gly-Ser-Gly linked to 12 residues of the Ku80 C-terminus)] | –
3 | – | – | no binding | Biotin-SGSGPSGDTAAVFEEG [Peptide C (biotin-Ser-Gly-Ser-Gly linked to 12 residues of the Ku80 C-terminus)] | –
4 | – | – | no binding | Biotin-SGSGLAPKDKPSGDTA [Peptide B (biotin-Ser-Gly-Ser-Gly linked to 12 residues of the Ku80 C-terminus)] | –
5 | – | – | no binding | Biotin-SGSGEEAKKFLAPKDK [Peptide A (biotin-Ser-Gly-Ser-Gly linked to 12 residues of the Ku80 C-terminus)] | –
